B1: E3 ubiquitin-protein ligase CBL-B (Homo sapiens), Q13191 (parent)
chain: MANSMNGRNPGGRGGNPRKGRILGIIDAIQDAVGPPKQAAADRRTVEKTWKLMDKVVRLCQNPKLQLKNSPPYILDILPDTYQHLRLILSKYDDNQKLAQLSENEYFKIYIDSLMKKSKRAIRLFKEGKERMYEEQSQDRRNLTKLSLIFSHMLAEIKAIFPNGQFQGDNFRITKADAAEFWRKFFGDKTIVPWKVFRQCLHEVHQISSGLEAMALKSTIDLTCNDYISVFEFDIFTRLFQPWGSILRNWNFLAVTHPGYMAFLTYDEVKARLQKYSTKPGSYIFRLSCTRLGQWAIGYVTGDGNILQTIPHNKPLFQALIDGSREGFYLYPDGRSYNPDLTGLCEPTPHDHIKVTQEQYELYCEMGSTFQLCKICAENDKDVKIEPCGHLMCTSCLTAWQESDGQGCPFCRCEIKGTEPIIVDPFDPRDEGSRCCSIIDPFGMPMLDLDDDDDREESLMMNRLANVRKCTDRQNSPVTSPGSSPLAQRRKPQPDPLQIPHLSLPPVPPRLDLIQKGIVRSPCGSPTGSPKSSPCMVRKQDKPLPAPPPPLRDPPPPPPERPPPIPPDNRLSRHIHHVESVPSRDPPMPLEAWCPRDVFGTNQLVGCRLLGEGSPKPGITASSNVNGRHSRVGSDPVLMRKHRRHDLPLEGAKVFSNGHLGSEEYDVPPRLSPPPPVTTLLPSIKCTGPLANSLSEKTRDPVEEDDDEYKIPSSHPVSLNSQPSHCHNVKPPVRSCDNGHCMLNGTHGPSSEKKSNIPDLSIYLKGDVFDSASDPVPLPPARPPTRDNPKHGSSLNRTPSDYDLLIPPLGEDAFDALPPSLPPPPPPARHSLIEHSKPPGSSSRPSSGQDLFLLPSDPFVDLASGQVPLPPARRLPGENVKTNRTSQDYDQLPSCSDGSQAPARPPKPRPRRTAPEIHHRKPHGPEAALENVDAKIAKLMGEGYAFEEVKRALEIAQNNVEVARSILREFAFPPPVSPRLNL

Variants of: B1
Conditions: with cd2ap_human CD2AP

Row | effect of a mutation on the interaction | Variant
1 | decreasing interaction | K907L

Variants of: B1
Conditions: with sh3k1_human SH3KBP1, Q96B97
Sequence of sh3k1_human SH3KBP1, Q96B97 (Q96B97 whole entry): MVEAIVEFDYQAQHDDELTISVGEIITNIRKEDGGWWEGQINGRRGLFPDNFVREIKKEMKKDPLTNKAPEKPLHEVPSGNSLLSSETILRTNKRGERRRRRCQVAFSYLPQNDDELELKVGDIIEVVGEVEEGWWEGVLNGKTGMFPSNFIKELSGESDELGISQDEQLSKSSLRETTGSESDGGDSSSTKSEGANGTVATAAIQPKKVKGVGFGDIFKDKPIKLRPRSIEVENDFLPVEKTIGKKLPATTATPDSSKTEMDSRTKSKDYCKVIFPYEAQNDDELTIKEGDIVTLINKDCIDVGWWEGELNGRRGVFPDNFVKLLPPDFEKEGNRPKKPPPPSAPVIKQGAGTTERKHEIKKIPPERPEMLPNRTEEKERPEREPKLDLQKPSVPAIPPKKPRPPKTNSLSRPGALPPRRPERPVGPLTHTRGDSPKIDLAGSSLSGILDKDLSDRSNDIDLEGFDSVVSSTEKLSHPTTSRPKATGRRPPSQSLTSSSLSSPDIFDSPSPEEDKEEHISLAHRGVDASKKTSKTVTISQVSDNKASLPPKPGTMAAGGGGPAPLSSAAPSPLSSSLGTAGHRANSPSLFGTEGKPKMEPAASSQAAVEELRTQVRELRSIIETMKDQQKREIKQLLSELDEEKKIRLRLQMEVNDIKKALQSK

Row | effect of a mutation on the interaction | Variant
2 | decreasing interaction | K907L

Variants of: B1
Conditions: with sh3k1_human SH3KBP1, Q96B97
Remark: another data set of the same source

Row | effect of a mutation on the interaction | Variant
3 | decreasing interaction | R911A

Variants of: B1
Conditions: with cd2ap_human CD2AP
Remark: another data set of the same source

Row | effect of a mutation on the interaction | Variant
4 | decreasing interaction | R911A

Variants of: B1
Conditions: with cd2ap_human CD2AP
Remark: another data set of the same source

Row | effect of a mutation on the interaction | Variant
5 | decreasing interaction | R904G

Variants of: B1
Conditions: with sh3k1_human SH3KBP1, Q96B97
Remark: another data set of the same source

Row | effect of a mutation on the interaction | Variant
6 | decreasing interaction | R904G
